Results published in a protein production outcome set (Wang et al. 2014).

Experiment: label from the status in PepcDB records

MMFNYIYTTFLTILYTVVMSLSLSLYLKEREKNYLLVSLYFLLLILNGLIVTMSETFQIFANDYNQQFMVNPIIETIYYLATFGIALKLVTELFEEKITTYQYGIYIVFALWLIVVPFMANSALKVWLYYFPSQLLTVYLGIYLLIHNRKMIPKSSLGKYVKLIGSLAIFFGLAIVVEDTFIIYFRDIYHTNMLKIHNRNVSEDIFHISLCLIAIKYFLTNYQKSNEEVAVIDIRNEKKETNDSVSNFEEDEYYFERFMDKYGITQREGEILELLLQRKHNQEIANQLYLSLGTVKTHTHNIFIKLQVEKRSEVCEVWEAFEKSELTQ
protein production: failed

MMGDSVIYYVEQADEPVNRADERARKTFKYFWRELFWERRRIISALDFAMVKVPFFQDGEDGEICEHMWIDDIYFDGLYIYGVLNNEPGELTNVEQGESVCVPVDDISDWMFVCNGIPYGGFTIQAMRGQMTEEERTEHDAAWGIDFGDPGQILLVYEEKEHPENLEEHPMCRNCIDDFRQQLSQNSDYLREQDEDGYTPLHHEAIAGNALMVQAMLEYGANPASTTSEGYTALDFACLTGWQNVADLLEPRH
protein production: failed

MMIKIIREMPHGVAALCLIQAFSTFSYAVQYSSLALFITKQLGIANLSANSIVGLFLSFSYIFQLIGGVIGSRFISNRLLFVTTILIQNMGLFFLAQANPSLLNIGLSLFMVGSGLNVTSSNSMLTQCFIPQDDRRESAFFLSYAGMNVGYCIGYIACGFFDYSNQYQYLLYASILTNSIALLIIIKNWAYLGDKNFPLPNLTKRNWYFIKNILAIAFITFLIPFMRVCFEFANFCNGLVIITCLFMFLIIFILGLKQKSSSDRKKMMAYLILAISSVLFWMIYLTGPMGVTLFVKNNVDKHLFSFELATQWIKNINPVVIIFGAPIMSMLINKLKAKGFHVSAPVQFSCSFVFLALSFLCLIFGIICSNSYGYISIYWIIGHHILQGMSELLLGPVGYALIGRIAPPKLQGILMGTWMLVIGVAASFSQYFSNAMVQSESVDPLITNQDFLTAFKQLGLWSLLCAALLYFVSGKLTRIINGTKDNKSVNESKALPMPYSN
protein production: failed

MMIMNNFDEKKLIQEFSKIQSELSPRIKLENNFQIEEIQFIAGVDLAYWNVNKTKYGTCCIVIIDYGTKEVVEKVYSYGEIPIPYIPGFLAFRELPLIIEAVKKLTKQPDIYFFDGNGYLHYRHMGIATHASFLLNKPTIGVAKSYLKIRDVDFIMPENLKGSYTDIVINNEVYGRTLRTTKNVKPIFVSCGNWIDLDTSTEIVMNCINNESRLPIPVRLADLETHKMRKKLMEGLEHHHHHH
protein production: failed

MMKNKVNIDTIIYLVLIITSLIFIYAGSFLFEEGSFIGNRGNNRTVDADTATDRNKPFPVVHKAVSTEINGIKQKINILEIDLSSGGVKIKPALAFDTIYGFQSLKDIAINNNAYAAVNAGFFYSYGEPSGMVVIDGKVYTKSTGKYPVFVVQGKNAFLSEIKSNIWILHGNRRIAADDINREGKPGETVVYTPVFGPTNRADKLHTSYIVENNRVARKFRGDTECKIPSDGMVITFYEPISSEEKFEVGDWIGIDIDPDFGPGFQAYECGSWLVRDGQVVAVDRDDWVGLLTNRDPRTAIGVKHDGKVVLVTVDGRQPGYSVGLSSRELAGYLLTLGIKDAAMLDGGASTQMIVQNKTVNRLPARERMLGGGIVVVVDEDL
protein production: failed

MMKRVAVTGAAGRVGTLLRPLLRSHFEHLSLIDLQEPDELGENENFVRADFTKLDEATAALKDIDGVIHLAGIASGTDMNAILHANVLGTYNLYEAARINKVQRVVYASSNHATGFYPRGQLVSPLDPMRPDSPYGLSKCWGELVAGLYYDTSGIRSLSIRIGNAGTYPNSERSIAIWISARDLAQLVRIGLSHPLIAATVVYGVSDTEEKWWENDLATRLGYQPQDRPRDHALIEEGSEGPVALAFQGGGFCEINHDGTIRMRDADGLAKSPETVE
protein production: failed

MMKSLGSIRRSFAPWADPASKPFISVKNVTKKFGDFTAVDDLSLNIYTREFFALLGASGCGKSTLLRMLAGFEQPTSGEIILDGQSLAGIPPYRRPVNMMFQSYALFPHMTVENNVAFGLKQDGMPKADIAERVAQMLKLVKLEKFAKRKPHQLSGGQRQRVALARSLAKRPKVLLLDEPLGALDKKLREETQFELMDLQQELGLTFVVVTHDQEEAMTMADRIAVMSHGKVVQVATPAEIYEAPNSRFVADFIGDVNIFDGKVTSAEDGYIRVETTGGIPVRMASPEKPGNGAKAAVAIRPEKIRIGRQPPAHAPVNAAEGEIWDIGYLGDMTVFHIRLKDGKVVKASSLNAVRAVEDPLGYDQQVWISFGDDAGVVLKD
protein production: failed

MMMGRIKPTDGTAGNPEFNAELVAEKIEAITSPPPAPDTSEPDAAASQPAAPQTAAPPAQTVAQPAPVTPPIVSEPPAPQQAAAAPQPAVDESALRYFASRGDKVRLQAEISRLQALYPNWVPPADPLAVPQNGDKQLEAMWQLYSDGRYAELRKAVADRQAADAGWQPPADLLDRLDVAEGRARLVNASDLKQYATVVDIAAATPSLLTCSEIDVLWRVAEAFIQTERAQRGQDAYTYILKNCTNPAERQATVEKASTLLAYQPMQALLALERPAADGSKEFDAIRDNLARRFMAEGDDEPNLAIAPDYIARLEKLAETQGLASDALLLGWYQLRRNNDADAEKWFRAARAKQDSAAASQGLALALIARKAPEEAEDVMFRWRADSDDATSTYLAATANLMALQPPADLAEDVLHRIAGEVIARKYVPTAQQFGWYARSLNQFQTAARWFETALAWKPDDEPSAYGLVITREQLSDRKGVLDLQRAWAGRSSRITNLEDTSSLMPNAVTPPPAKGTLAAQQPAQPTQHPPAEPLPAERRVILQPGSEVVVRAARPSMETVNVPRGPRQTRGCSTTIDAGQLKPADALSRGWCLMDINRPMEAISAFESALQSPSRKVREDAAYGQSLAYLRAGLSGNAAVAATKAPQNRQRAAELQVAILADRALSAFDAGRYRETLIYLDQRAQLQQERIDLMVLRGYCYLNLKMYGDATRIFEAAAATGSRDAARGLADVRNVTHPDVND
protein production: failed

MMMHPMNKTNKRDKMEKRNNPSALNIFMSFLKLGMVAFGGPTAIAYVREMVVDEKKWMDEKSFNNGVALAQIIPGASVMQVAAYVGFYLRGIVGAFAAFMAYALPAFLIMLFLTIIYMHVKSLPKTVSIFEALRIIVVSLAANGTLNFSKKNIRTIGDVFLLLISALLFILKFSPFIVIFVSIFIGFLMYRRDITKLSLKIDIPREKLRIYKYVAYLLFGVFLFNLILYMIDSKLFLLSTLMMKVDVFAFGGGYGSVPFMLHEVVDKYNLMDAKTFMDGIALGQITPGPIVITATFVGYIVGGFIGSIISTISVFTPSFIILLSSIPIFDSLKHNTIFKNILHMILVSFVGLLVAVTIRFALLVDWSIQALIIFIVSFLLLYKKYNMLLVVLLSLVLGYLIL
protein production: failed

MMMYKEPFGVKVDFETGIIEGAKKSVRRLSDMEGYFVDERAWKELVEKEDPVVYEVYAVEQEEKEGDLNFSTHVIYPGKVGKEFFFAKGHFHAKLDRAQVAVALKGKGGVLMQTPEGDAKWISSEPGTVIYSPPYWAARAVNIGDEPFIMLVIYPADAGHDYGTIAEKGFSKIVIEENGEVKVVDNPRWKKGSLEHHHHHH
protein production: not failed

MMNDRFTRIKWLVGEEKFQKISQTKVLVCGLGGVGGICVDALYRSGFKNLTLIDADKFEITNQNRQIHSENIGEEKAKVFERIYKVKGIVSKIDENFLKNFDLSEFDLIIDAIDDIPAKVALAHLIDFKKQIFISSTGGARKLDPTRIKTTSIFKTHGDALAKKFRYELRKSGFKGNFDVVFSDEEAHCKDLGSFMGVTASFGLALASLALRKVLAKKS
protein production: failed

MMNEPQVSFITVCYNGFKDTCELIESLQTHVHSVSYEIIVVDNASREDEATKIKELYSDIVTLRSESNLGFSGGNNLGIRVAKGAYIFLINNDTYVESDGFHYLTERLESQKNIGAVSPKIRFAFPPQNIQFAGFTSLSAITIRNEMTGFGCPDDGTFDTPHTTPYLHGAALMVKREVIEKVGEMPEIFFLYYEEMDWCTQMTNAGYELWYEPRCTVFHKESQSTGQFSKLRTFYMTRNRLLYTRRNRKGAQRLLSILYQSTIAAGKNSLQFAVKGRFDLFAAVWKGVVRSFSVTSPIRLEHHHHHH
protein production: failed

MMNTPESRLVAAGLELPEVAAALGNYEPYSIVGSQLMTSGQFPYLQGKLLYQGQLGADYTVSEGYAACRLATLNAIAQLKQACGELSRIKQIYRLEGVLNVHQSCIEHPKALDGASDLLLEIFGEAGRHSRMIWTNPVMPLNSLCLVYLFAEL
protein production: not failed

MMNYRKADMKDISLLVSIRKRQLIDEGIEPNIDIDKELTRYFNNKLANNLLVEWIAEENNQIIATAAIAFIDFPPTYTNKTGRKGYITNMYTEPTSRGNGIATGMLDRLVNEAKERNIHKICLVASKLGRPVYKKYGFQDTDEWLELNLLEHHHHHH
protein production: failed

MMPSVHRRSRPWDPEATPRIPEMALQPAAGARDLNPRQVESNRALSERLASVFRLWGYDEVSPPRVERLDTLMAGGAIASEDVVRLVADEPLGLRPEMTASIARAACTRLASRPRPLRLWASGTVFQSRAADEGGQCIEENLQCGVELFGVAPIEAEMELLSLLMAAVERLDFQAQHQPRLLMGHTGLMDLLLSPVPPVLRDAVRAALIQYDRLGLETIELEEGLRATLLSLLDCRGTPNEVLERLSSCFGAQALFDDLHRLCRQLQGPAAAQGVRLQLDPTFQPRFELYTGLVFQLVCDTHSAPVVVARGGRYDDLVRRCGAQPGQDFGAGFSLAIDPIRELLSDSSSNPTVAPQLMVAFSERSTLEAALERQRWWHQQGRSAVIELHPFSTRSLAEQQATDQGGFQLDWIDP
protein production: failed

MMQDISIFLAFGAGFLSFISPCCLPLYPAFLSYITGMSVSELKEENAMLRKRSMIHTAFFLLGFSIIFIAIGFGTSFIGGIFTDYKDLIRQLGGIFIIVFGLIIVGVFKPKFLMQDRKFTFKNRPSGYFGSVLIGLAFAAGWTPCTGPILVSVIGLAATNPESAMIYMIAYILGFAIPFFVLSFFITKMSWIKRNSMAFMKVGGYIMIVMGVFLYFNWMTKIIVYFSSLFGGFTGF
protein production: failed

MMQPLQLSAGGFAVVLGTNEIASAVAVHLHREGCCVVMSHDPFPPVIRRKMAFHDALYGDEVTVEGVRGERVDHATQIFKALRRSDNVLVSWLALPDLLPIGAVDVLIDARMQKHRVTPDLRGLARISVGLGPGFSTAVNCDVAIETRPGRSGLIVGAGWTDAADGVASPLGGVGAERFEYSQASGRWRTAVEIGSRVFSGFTIGHLGGVPVRAPCDGILRGVVRDGQDVPQGVKLLEVDSRGRHAQWTGIDDRGRGIAKAVLRAVQPQAEIRTSYAAQPIAVFLEHHHHHH
protein production: not failed

MMRFSNKFKKVPYLLQALLNVCLSFLALALSALLISETWYIVLFVYKSLFNKVDSYYEMLGELLIFFMYFEFIALIIKYFKSDFHFPLRYFIYIGITAVIRLIIIDHDQAISTFWWAMAILAMICGFFIANRRNSVVEH
protein production: failed

MMRKLLTALPDGGVSALSGLQDAQTVGRISVAPSGRKFLLLTIVLFLITFATHAQVVDTWRFDNPQQQEKALSIAGQLRCPQCQNQNLLESNAPVAVSMRHQVYSMVAEGKSEAEITAWMTDRYGDFVRYNPPLNEQTLLLWALPCLLLLLVGVVVWRVRKRQHAEEGEQ
protein production: failed

MMRLRGIPQVFRFLLLLVLAGLAGCASKAPAPEKVAPVYQPEQSKEWERQGRQAYEAGDRKMALEAWHQAVAADPANVRVRNNLALLLKEQERFEEAAEMLEAGLKVTPKVAELHYNLAVISELYLLDLDKALEHYQHYQSLVGEEGSQVAGWIADLERRLE
protein production: failed

MMSNALRRFDPAWFEKYDGIIKHERLGTHVGKPNSSHNYAIEKCVNLMNQGQSIVHALFKQDDVMKREYHIPLNTSIDASRYLLRQGIAFHGHDESEESANKGNFLELVKYTGEQNDATEQMAVVFRFVDKSGTVKERFIEVVHVKETSSASVKSAIDDLFAKYGLSLKTVRGQGYDGASIMKVAKGVAKSFDLLSLLLKIIVVYK
protein production: failed

MMSSSTTTLVDAVASPQAQQAVYIGLVNPKTPTNVGGIMRASGCYGVDAVFYTGKRYEYAARGPQQYNADTQSAAERIPLTGVTSLLDAIPAGTQLVCVDLVLGATPLPEFVHPERAFYVFGPEDGTIGQEIIDRADAVVYVPTVGCMNLAASVNVLLYDRLAKTYRKQATNEAEFDGDALIRTSRDNNNRTRVKTTKRESSK
protein production: failed
